In patent US20140274782A1, “AFFINITY REAGENTS AND METHODS FOR DETECTION, PURIFICATION, AND PROTEOMIC ANALYSIS OF METHYLATED PROTEINS” (The Board of Trustees of the Leland Stanford Junior …, priority 2013, published 2014):

T1: G9a and GLP (Homo sapiens, UniProt Q96KQ7+Q9H9B1)
T1 sequence (Q96KQ7 2-1210 limits assumed): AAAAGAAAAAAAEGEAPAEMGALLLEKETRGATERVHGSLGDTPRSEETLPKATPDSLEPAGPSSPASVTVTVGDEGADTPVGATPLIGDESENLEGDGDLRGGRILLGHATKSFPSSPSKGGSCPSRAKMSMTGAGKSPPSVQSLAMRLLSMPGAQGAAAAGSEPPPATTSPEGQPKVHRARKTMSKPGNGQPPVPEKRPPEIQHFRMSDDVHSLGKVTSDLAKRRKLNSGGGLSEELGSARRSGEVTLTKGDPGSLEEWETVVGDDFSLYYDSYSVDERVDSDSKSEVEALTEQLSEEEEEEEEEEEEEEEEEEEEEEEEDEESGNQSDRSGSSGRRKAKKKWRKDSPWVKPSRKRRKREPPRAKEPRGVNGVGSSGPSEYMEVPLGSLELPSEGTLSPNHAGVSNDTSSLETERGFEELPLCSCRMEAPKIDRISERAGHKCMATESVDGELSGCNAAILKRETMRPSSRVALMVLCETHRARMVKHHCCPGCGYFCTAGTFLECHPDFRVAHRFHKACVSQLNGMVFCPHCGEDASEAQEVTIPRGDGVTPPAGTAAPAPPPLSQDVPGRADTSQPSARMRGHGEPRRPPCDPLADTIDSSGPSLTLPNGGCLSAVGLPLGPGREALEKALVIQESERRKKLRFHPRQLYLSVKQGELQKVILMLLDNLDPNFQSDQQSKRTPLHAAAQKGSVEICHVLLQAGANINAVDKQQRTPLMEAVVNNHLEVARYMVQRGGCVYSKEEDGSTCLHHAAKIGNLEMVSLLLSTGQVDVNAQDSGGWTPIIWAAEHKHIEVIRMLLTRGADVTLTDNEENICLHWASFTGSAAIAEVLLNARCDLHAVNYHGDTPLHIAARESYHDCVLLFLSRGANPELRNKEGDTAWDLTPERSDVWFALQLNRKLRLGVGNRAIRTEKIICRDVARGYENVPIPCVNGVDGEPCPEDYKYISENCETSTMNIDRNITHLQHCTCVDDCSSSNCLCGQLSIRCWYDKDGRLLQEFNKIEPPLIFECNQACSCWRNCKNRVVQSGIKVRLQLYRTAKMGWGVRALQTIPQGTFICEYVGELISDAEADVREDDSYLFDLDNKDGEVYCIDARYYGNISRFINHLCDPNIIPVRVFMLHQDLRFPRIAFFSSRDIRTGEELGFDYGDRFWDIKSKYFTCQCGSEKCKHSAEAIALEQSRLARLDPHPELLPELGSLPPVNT
T1 sequence (Q9H9B1 2-1298 limits assumed): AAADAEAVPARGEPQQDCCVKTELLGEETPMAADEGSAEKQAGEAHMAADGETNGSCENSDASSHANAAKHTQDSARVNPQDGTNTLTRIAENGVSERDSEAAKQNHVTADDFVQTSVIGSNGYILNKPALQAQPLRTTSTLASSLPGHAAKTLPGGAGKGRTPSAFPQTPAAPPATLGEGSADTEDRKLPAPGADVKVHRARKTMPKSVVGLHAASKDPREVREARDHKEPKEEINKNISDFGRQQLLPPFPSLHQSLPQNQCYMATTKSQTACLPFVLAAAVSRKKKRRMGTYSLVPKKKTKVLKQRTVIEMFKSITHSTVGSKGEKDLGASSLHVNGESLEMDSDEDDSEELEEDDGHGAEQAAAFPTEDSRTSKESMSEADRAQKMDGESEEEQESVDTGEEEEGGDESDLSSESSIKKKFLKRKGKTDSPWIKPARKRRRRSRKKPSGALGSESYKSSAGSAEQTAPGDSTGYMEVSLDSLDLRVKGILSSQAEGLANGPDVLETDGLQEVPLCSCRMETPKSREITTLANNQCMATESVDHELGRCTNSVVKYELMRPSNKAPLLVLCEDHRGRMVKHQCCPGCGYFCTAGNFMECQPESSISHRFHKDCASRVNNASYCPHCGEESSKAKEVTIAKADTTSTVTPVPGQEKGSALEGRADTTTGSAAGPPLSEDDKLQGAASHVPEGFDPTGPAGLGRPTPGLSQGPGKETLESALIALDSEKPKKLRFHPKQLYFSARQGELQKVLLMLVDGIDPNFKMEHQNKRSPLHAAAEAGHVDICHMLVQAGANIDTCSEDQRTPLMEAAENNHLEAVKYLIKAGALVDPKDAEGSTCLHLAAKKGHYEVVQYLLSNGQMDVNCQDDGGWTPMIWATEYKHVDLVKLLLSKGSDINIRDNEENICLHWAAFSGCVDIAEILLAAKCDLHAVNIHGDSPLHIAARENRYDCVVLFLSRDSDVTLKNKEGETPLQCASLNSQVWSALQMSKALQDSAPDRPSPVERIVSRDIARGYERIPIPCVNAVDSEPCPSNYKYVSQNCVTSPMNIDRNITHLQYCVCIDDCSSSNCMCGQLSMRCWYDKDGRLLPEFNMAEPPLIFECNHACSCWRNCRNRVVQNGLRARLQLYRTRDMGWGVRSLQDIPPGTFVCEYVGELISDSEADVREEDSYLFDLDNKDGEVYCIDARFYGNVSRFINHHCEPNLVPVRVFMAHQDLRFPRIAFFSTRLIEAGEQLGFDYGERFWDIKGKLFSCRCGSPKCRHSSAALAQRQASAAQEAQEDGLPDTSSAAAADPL


Assays:
[1] = test system: 3×MBT domain of L3MBTL1; experiment: Triple SILAC pull-down, 3xMBT/3xMBTD355N ratio (cytoplasmic, nuclear and chromatin fractions of 293T cells); format: binding, human; settings: SILAC ratio, pull-down 3xMBT vs 3xMBTD355N; for 3xMBT/D355N UNC Heavy: experiment with UNC0638 in heavy SILAC media; for 3xMBT/D355N UNC Light: experiment with UNC0638 in light SILAC media;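 for all read-outs here: proteins quantified with MaxQuant, requiring at least two unique peptides and quantification in both label directions, normalized to the mean of proteins from a digested loading control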
[2] = biological target: T1, G9a and GLP; experiment: Triple SILAC pull-down after UNC0638 treatment of 293T cells, DMSO/UNC0638 ratio of protein captured by 3×MBT; format: cell-based; parameters: endogenous in cells; host or cells: HEK 293T; settings: for Relative to UNC0638 UNC Heavy / Relative to UNC0638 UNC Light: SILAC ratio DMSO/UNC0638 of protein pulled down with 3xMBT; for Relative to UNC0638 UNC Heavy: UNC0638 in heavy SILAC media; for Relative to UNC0638 UNC Light: UNC0638 in light SILAC media; for Relative to UNC0638 Average: average of UNC Light and UNC Heavy experiments;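 for all read-outs here: mass spectrometry (Q-Exactive) SILAC quantitation, DMSO/UNC0638 ratio computed after subtracting 3×MBTD355N mutant pull-down background, only proteins with at least twofold 3×MBT over mutant signal considered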

Row | Molecule | 3xMBT/D355N UNC Heavy [1] [log base 2] | 3xMBT/D355N UNC Light [1] [log base 2] | Relative to UNC0638 UNC Heavy [2] [log base 2] | Relative to UNC0638 UNC Light [2] [log base 2] | Relative to UNC0638 Average [2] [log base 2]
1 | RRM1 (protein, UniProt P23921 1-792, looked up) Ribonucleoside-diphosphate …: MHVIKRDGRQERVMFDKITSRIQKLCYGLNMDFVDPAQITMKVIQGLYSGVTTVELDTLAAETAATLTTKHPDYAILAARIAVSNLHKETKKVFSDVMEDLYNYINPHNGKHSPMVAKSTLDIVLANKDRLNSAIIYDRDFSYNYFGFKTLERSYLLKINGKVAERPQHMLMRVSVGIHKEDIDAAIETYNLLSERWFTHASPTLFNAGTNRPQLSSCFLLSMKDDSIEGIYDTLKQCALISKSAGGIGVAVSCIRATGSYIAGTNGNSNGLVPMLRVYNNTARYVDQGGNKRPGAFAIYLEPWHLDIFEFLDLKKNTGKEEQRARDLFFALWIPDLFMKRVETNQDWSLMCPNECPGLDEVWGEEFEKLYASYEKQGRVRKVVKAQQLWYAIIESQTETGTPYMLYKDSCNRKSNQQNLGTIKCSNLCTEIVEYTSKDEVAVCNLASLALNMYVTSEHTYDFKKLAEVTKVVVRNLNKIIDINYYPVPEACLSNKRHRPIGIGVQGLADAFILMRYPFESAEAQLLNKQIFETIYYGALEASCDLAKEQGPYETYEGSPVSKGILQYDMWNVTPTDLWDWKVLKEKIAKYGIRNSLLIAPMPTASTAQILGNNESIEPYTSNIYTRRVLSGEFQIVNPHLLKDLTERGLWHEEMKNQIIACNGSIQSIPEIPDDLKQLYKTVWEISQKTVLKMAAERGAFIDQSQSLNIHIAEPNYGKLTSMHFYGWKQGLKTGMYYLRTRPAANPIQFTLNKEKLKDKEKVSKEEEEKERNTAAMVCSLENRDECLMCGS | 1.23 | 0.94 | 0.96 | −0.22 | 0.37
2 | WDR70 (protein, UniProt Q9NW82 1-654, looked up) WD repeat-containing protein …: MERSGPSEVTGSDASGPDPQLAVTMGFTGFGKKARTFDLEAMFEQTRRTAVERSRKTLEAREKEEEMNREKELRRQNEDIEPTSSRSNVVRDCSKSSSRDTSSSESEQSSDSSDDELIGPPLPPKMVGKPVNFMEEDILGPLPPPLNEEEEEAEEEEEEEEEEENPVHKIPDSHEITLKHGTKTVSALGLDPSGARLVTGGYDYDVKFWDFAGMDASFKAFRSLQPCECHQIKSLQYSNTGDMILVVSGSSQAKVIDRDGFEVMECIKGDQYIVDMANTKGHTAMLHTGSWHPKIKGEFMTCSNDATVRTWEVENPKKQKSVFKPRTMQGKKVIPTTCTYSRDGNLIAAACQNGSIQIWDRNLTVHPKFHYKQAHDSGTDTSCVTFSYDGNVLASRGGDDSLKLWDIRQFNKPLFSASGLPTMFPMTDCCFSPDDKLIVTGTSIQRGCGSGKLVFFERRTFQRVYEIDITDASVVRCLWHPKLNQIMVGTGNGLAKVYYDPNKSQRGAKLCVVKTQRKAKQAETLTQDYIITPHALPMFREPRQRSTRKQLEKDRLDPLKSHKPEPPVAGPGRGGRVGTHGGTLSSYIVKNIALDKTDDSNPREAILRHAKAAEDSPYWVSPAYSKTQPKTMFAQVESDDEEAKNEPEWKKRKI | 2.21 | 2.93 | 0.94 | −0.18 | 0.38
3 | SEPT7 (protein, UniProt Q16181 2-437, looked up) Septin-7: SVSARSAAAEERSVNSSTMVAQQKNLEGYVGFANLPNQVYRKSVKRGFEFTLMVVGESGLGKSTLINSLFLTDLYSPEYPGPSHRIKKTVQVEQSKVLIKEGGVQLLLTIVDTPGFGDAVDNSNCWQPVIDYIDSKFEDYLNAESRVNRRQMPDNRVQCCLYFIAPSGHGLKPLDIEFMKRLHEKVNIIPLIAKADTLTPEECQQFKKQIMKEIQEHKIKIYEFPETDDEEENKLVKKIKDRLPLAVVGSNTIIEVNGKRVRGRQYPWGVAEVENGEHCDFTILRNMLIRTHMQDLKDVTNNVHYENYRSRKLAAVTYNGVDNNKNKGQLTKSPLAQMEEERREHVAKMKKMEMEMEQVFEMKVKEKVQKLKDSEAELQRRHEQMKKNLEAQHKELEEKRRQFEDEKANWEAQQRILEQQNSSRTLEKNKKKGKIF | 2.75 | 2.54 | 0.50 | 0.26 | 0.38
4 | PPP1R10 (protein, UniProt Q96QC0 1-940, looked up) Serine/threonine-protein …: MGSGPIDPKELLKGLDSFLNRDGEVKSVDGISKIFSLMKEARKMVSRCTYLNILLQTRSPEILVKFIDVGGYKLLNNWLTYSKTTNNIPLLQQILLTLQHLPLTVDHLKQNNTAKLVKQLSKSSEDEELRKLASVLVSDWMAVIRSQSSTQPAEKDKKKRKDEGKSRTTLPERPLTEVKAETRAEEAPEKKREKPKSLRTTAPSHAKFRSTGLELETPSLVPVKKNASTVVVSDKYNLKPIPLKRQSNVAAPGDATPPAEKKYKPLNTTPNATKEIKVKIIPPQPMEGLGFLDALNSAPVPGIKIKKKKKVLSPTAAKPSPFEGKTSTEPSTAKPSSPEPAPPSEAMDADRPGTPVPPVEVPELMDTASLEPGALDAKPVESPGDPNQLTRKGRKRKSVTWPEEGKLREYFYFELDETERVNVNKIKDFGEAAKREILSDRHAFETARRLSHDNMEEKVPWVCPRPLVLPSPLVTPGSNSQERYIQAEREKGILQELFLNKESPHEPDPEPYEPIPPKLIPLDEECSMDETPYVETLEPGGSGGSPDGAGGSKLPPVLANLMGSMGAGKGPQGPGGGGINVQEILTSIMGSPNSHPSEELLKQPDYSDKIKQMLVPHGLLGPGPIANGFPPGGPGGPKGMQHFPPGPGGPMPGPHGGPGGPVGPRLLGPPPPPRGGDPFWDGPGDPMRGGPMRGGPGPGPGPYHRGRGGRGGNEPPPPPPPFRGARGGRSGGGPPNGRGGPGGGMVGGGGHRPHEGPGGGMGNSSGHRPHEGPGGGMGSGHRPHEGPGGSMGGGGGHRPHEGPGGGISGGSGHRPHEGPGGGMGAGGGHRPHEGPGGSMGGSGGHRPHEGPGHGGPHGHRPHDVPGHRGHDHRGPPPHEHRGHDGPGHGGGGHRGHDGGHSHGGDMSNRPVCRHFMMKGNCRYENNCAFYHPGVNGPPLP | 4.73 | 2.57 | 0.36 | 0.37 | 0.36
